Test in all cases: SEC
For data set [1], the target named is Apo-COCP (colorless apoprotein of COCP, OCP-CTD without carotenoid) (Synechocystis sp. PCC 6803) (UniProt P74102).
In data set [2] the target is C-terminal OCP-related Carotenoid Protein (COCP), carotenoid-bound OCP-CTD (Synechocystis sp. PCC 6803) (UniProt P74102).
The data set “SEC” deals with the molecule itself.

Take “Apo-COCP (colorless apoprotein of COCP, OCP-CTD without carotenoid) (from UniProt P74102 1-317) (domain or fragment)”: in data set [1], the stoichiometry N was determined as 2.
In data set [2], “C-terminal OCP-related Carotenoid Protein (COCP), carotenoid-bound OCP-CTD (from UniProt P74102 1-317) (domain or fragment)” came in with a stoichiometry N of 2.

B1: Fluorescence Recovery Protein (FRP) (natural protein)
chain: MLQTAEAPWSQAETQSAHALFRKAYQRELDGLLATVQAQASQITQIDDLWKLHDFLSAKRHEIDGKYDDRQSVIIFVFAQLLKEGLVQAEELTFLAADKQSKIKALARL
Take B1: the “stoichiometry N” value in “SEC” stood at 2.

The record behind these values is publication doi:10.1101/096651 (bioRxiv, 2016).
